Results reported in PMC1626583.
pKd: −log10 of the molar value.

Target: FIII9–10 mutant Ala5, GST fusion protein (human)
Test: SPR

integrin α5β1 (from UniProt P05556 21-798) (receptor)
pKd: 7.20
